Blank lines part the entries; values can stand above or below the molecule they belong to.
Tests used:
[1] = test system: Met expression in neutrophils; experiment: Q-PCR / Western blot of Met expression in mouse neutrophils; format: cell-based; conditions: naïve mouse neutrophils
Method: Western blot: 2×10^6 bone marrow neutrophils from WT mice were stimulated with TCM, CCM, 100 ng/ml of murine TNF-α (or mock medium 0% FBS or 10% FBS as control) for 20 hours at 37° C. For the co-culture with HUVEC, a monolayer of HUVEC was stimulated for 4 hours with 5 ng/ml IL-1 at 37° C., and washed before neutrophil seeding. After 20 hours of stimulation, neutrophils were collected using Cell Dissociation Buffer, Enzyme Free, PBS-Based (Gibco). Cells were washed in PBS, lysed in 15 μl of a protease inhibitor mixture and incubated for 15 minutes on ice. The stock solution was obtained by dissolving one tablet of Complete Mini protease inhibitor mixture (CI, Roche) in 5 ml of PBS with 2 mM diisopropyl fluorophosphate (DFP; Acros Organics, Morris Plains, N.J.). After addition of an equal amount of 2×SDS sample buffer supplemented with 4% 2-mercaptoethanol, the lysates were boiled for 15 minutes and kept at -80° C. until use. 30×10^6 neutrophils purified from healthy volunteer blood and stimulated with A549-CM, 100 ng/ml of human TNF-α, 50 ng/ml LPS (or mock medium 10% FBS as control) for 20 hours. Cells were incubated with DFP 2.7 mM for 15' at 4° C., collected and washed in PBS, DFP 2.7 mM, CI 1X, and lysed in hot […] buffer (25% SDS 10%, 25% Tris-HCl pH 6.8) at 96° C. for 10'. Cell lysates were sonicated, cleared and quantified. 6× loading buffer was added before loading on the gel. The following antibodies were used: mouse anti-mouse Met (clone 3D4; Invitrogen), mouse anti-mouse β-actin (Santa Cruz), rabbit anti-human Met (clone D1C2-XP; Cell Signaling), HRP-conjugated anti-beta-tubulin (Abcam). Signal was visualized by Enhanced Chemiluminescent Reagents (ECL, Invitrogen) or West Femto by Thermo Scientific according to the manufacturer's instructions. Quantitative RT-PCR: for mRNA analysis, 1×10^5 or 3×10^5 mouse or human neutrophils, respectively, were incubated in normoxic (21% oxygen) or hypoxic condition (1% oxygen) or stimulated with TCM (plus 50 μg/ml Enbrel or human IgG when indicated), CCM, A549-CM, 100 ng/ml of murine or human TNF-α, 50 ng/ml LPS, or mock medium in 96-multiwell for 4 hours at 37° C. 2×10^5 HUVEC were seeded in 24-multiwell coated with 0.1% gelatin and stimulated with 5 ng/ml IL-1 in DMEM 10% FBS for 4 hours at 37° C. Cells were washed in PBS, collected in RLT buffer (QIAGEN®) and kept at -80° C. RNA was extracted with an RNase Micro kit (QIAGEN®) according to manufacturer's instructions. Reverse transcription to cDNA was performed with the SuperScript III Reverse Transcriptase (Invitrogen) according to manufacturer's protocol. […]

LLC cancer cells = experiment: Cytotoxicity assay: LLC cancer cell killing by neutrophils; format: cell-based, mouse
Method: Cytotoxicity assay: LLC-shMet were transduced with a luciferase-expressing lentivirus (EXhLUC-Lvl 14 from GeneCopoeia); 104 LLC were seeded in DMEM 10% FBS in 96-multiwell. After 4 h, 0.2×10^6 neutrophils purified from the blood of LLC-tumor bearing mice or sorted from LLC-tumors were co-cultured with the LLC in DMEM 2% FBS for 4 hours at 37° C., with or without 100 ng/ml HGF or 1 mM L-NMMA (SIGMA). After washing, adherent cells were lysate in 0.2% Tryton 1 mM DTT.

[2] = biological target: MET (c-Met, HGF receptor) on mouse neutrophils (mouse) (UniProt P16056); experiment: cell-based or functional assay
neutrophils [3] = experiment: Transmigration and migration assay of neutrophils; format: cell-based, mouse
Method: Transmigration and Migration Assay: For the transmigration assay, 2×10^5 HUVEC were seeded on 3 μm polycarbonate membrane (Transwell; Costar) previously coated with 0.1% gelatin in M199 20% FBS. After 12 h, HUVEC were stimulated for 4 hours at 37° C. in DMEM 10% FBS with 5 ng/ml IL-1 and then washed. 5×105 WBC were seeded on top of the endothelial monolayer, while mock medium (+/− decoy Met), TCM (+/− decoy Met) or 50 ng/ml murine HGF was added in the bottom. After 2 hours at 37° C., transmigrated cells were collected from the lower chambers and from the bottom part of the filter with cold PBS 0.5% EDTA. Cells were stained and Ly6G+ cells quantified as above. In the migration assays WBC were seeded directly on top of 3 μm polycarbonate porous membranes.

Ly6G+ cells = experiment: Air pouch assay: neutrophil exudation into subcutaneous air pouches; format: in vivo; conditions: 200 ng/mouse, 4 hours; for recruitment of Ly6G+ cells into air pouch: WT→WT mice
Method: Air Pouch Assay: to create subcutaneous air pouches, bone marrow transplanted WT and KO mice were injected with 3 ml of sterile air by dorsal subcutaneous injection with a butterfly 23G needle on day 0 and on day 3. On day 6, 200 ng/mouse of CXCL1 or murine HGF in 0.5 ml PBS-Heparin or PBS-Heparin as control, were injected in the dorsal camera created with the previous injection. After 4 hours, inflammatory cells were harvested by washing the pouch with 8 ml of PBS. Cells were stained with Ly6G-APC, washed and resuspended in PBS-BSA 0.1% with unlabeled counting beads and quantified with FACS Canto II (BD Bioscience).

neutrophils [4] = experiment: Adhesion assay: neutrophil adhesion to HUVEC; format: cell-based, mouse
Method: Adhesion Assay: 4×10^4 HUVEC were seeded in M199 20% FBS in 96-multiwell previously coated with 0.1% gelatin. After 12 h, HUVEC were stimulated with 5 ng/ml IL-1 in DMEM 10% FBS at 37° C. After 4 hours the endothelial monolayer was thoroughly washed and 2.5×105 WBC were seeded on top, with or without murine HGF (50 ng/ml). After 15′ non-adherent cells were washed out whereas adherent cells were detached by using Cell Dissociation Buffer, Enzyme Free, PBS-Based (Gibco). Cells were stained with Ly6G-APC, washed and resuspended in PBS-BSA 0.1% with unlabeled counting beads (BD Bioscience) and quantified with FACS Canto II (BD Bioscience).

β2-integrin = experiment: Soluble ICAM-1 binding assay and co-immunoprecipitation of active β2-integrin; format: cell-based
neutrophils [5] = experiment: Nitric oxide measurement by FACS (DAF-FM) in neutrophils; format: cell-based, mouse; conditions: HGF 100 ng/ml
Method: Nitric oxide measurement by FACS: neutrophils isolated from the blood of WT or KO LLC tumor bearing mice were co-cultured for 4 hours with LLC shMet, washed, and resuspended in PBSHepes 20 mM, incubated for 10′ with 5 μM DAF-FM diacetate (Molecular probes) in the absence or presence of HGF (100 ng/ml) at 37° C., washed and analyzed by FACS.

Molecule: TNF-a
- upregulation of MET at RNA and protein levels [1]: able to upregulate MET

Molecule: CNC(=N)NCCC[C@H](N)C(=O)O [L-NMMA, reference compound]
- HGF-induced cytotoxicity of neutrophils (LLC cancer cells; HGF 100 ng/ml plus 1 mM L-NMMA): decreased HGF-induced cytotoxicity to the level of Met KO neutrophils
- cytotoxicity of intratumoral WT neutrophils against cancer cells (LLC cancer cells; neutrophils sorted from LLC tumors, 1 mM L-NMMA): decreased the cytotoxicity of WT neutrophils to the levels of KO neutrophils

- adhesion of neutrophils to an activated endothelium (HUVEC pre-stimulated with IL-1), FACS count [2]: 48%
Molecule: Hepatocyte Growth Factor (HGF), murine (from UniProt Q08048 33-728) (ligand)

B1: decoy MET: soluble HGF-trap consisting of the extracellular portion of MET (protein, UniProt P08581 25-932, looked up)
extracellular domain: ECKEALAKSEMNVNMKYQLPNFTAETPIQNVILHEHHIFLGATNYIYVLNEEDLQKVAEYKTGPVLEHPDCFPCQDCSSKANLSGGVWKDNINMALVVDTYYDDQLISCGSVNRGTCQRHVFPHNHTADIQSEVHCIFSPQIEEPSQCPDCVVSALGAKVLSSVKDRFINFFVGNTINSSYFPDHPLHSISVRRLKETKDGFMFLTDQSYIDVLPEFRDSYPIKYVHAFESNNFIYFLTVQRETLDAQTFHTRIIRFCSINSGLHSYMEMPLECILTEKRKKRSTKKEVFNILQAAYVSKPGAQLARQIGASLNDDILFGVFAQSKPDSAEPMDRSAMCAFPIKYVNDFFNKIVNKNNVRCLQHFYGPNHEHCFNRTLLRNSSGCEARRDEYRTEFTTALQRVDLFMGQFSEVLLTSISTFIKGDLTIANLGTSEGRFMQVVVSRSGPSTPHVNFLLDSHPVSPEVIVEHTLNQNGYTLVITGKKITKIPLNGLGCRHFQSCSQCLSAPPFVQCGWCHDKCVRSEECLSGTWTQQICLPAIYKVFPNSAPLEGGTRLTICGWDFGFRRNNKFDLKKTRVLLGNESCTLTLSESTMNTLKCTVGPAMNKHFNMSIIISNGHGTTQYSTFSYVDPVITSISPKYGPMAGGTLLTLTGNYLNSGNSRHISIGGKTCTLKSVSNSILECYTPAQTISTEFAVKLKIDLANRETSIFSYREDPIVYEIHPTKSFISGGSTITGVGKNLNSVSVPRMVINVHEAGRNFTVACQHRSNSEIICCTTPSLQQLNLQLPLKTKAFFMLDGILSKYFDLIYVHNPVFKPFEKPVMISMGNENVLEIKGNDIDPEAVKGEVLKVGNKSCENIHLHSEAVLCTVPNDLLKLNSELNIEWKQAISSTVLGKVIVQPDQNFT
modifications: extracellular domain
- TCM-induced transendothelial migration of Met KO neutrophils (neutrophils [3]; Met KO neutrophils, TCM, decoy Met): did not further impair the migration of Met KO neutrophils
- TCM-promoted transendothelial migration of WT neutrophils (neutrophils [3]; WT neutrophils, TCM, decoy Met 0.5 ng/μl): abated this effect

B2: CXCL1: well-known neutrophil chemoattractant, positive control of neutrophil migration (protein, UniProt P12850 25-96, looked up)
Growth-regulated alpha protein: APIANELRCQCLQTMAGIHLKNIQSLKVLPSGPHCTQTEVIATLKNGREACLDPEAPLVQKIVQKMLKGVPK
- recruitment of neutrophils into air pouch in KO→WT mice (Ly6G+ cells): did not change
- recruitment of Ly6G+ cells into air pouch (Ly6G+ cells): equally good in recruiting Ly6G+ cells

- active β2-integrin (immunoprecipitation) (β2-integrin; upon HGF stimulation): more active Iβ2-integrin
B3: HGF: Hepatocyte Growth Factor, the ligand of the MET tyrosine kinase receptor (protein)
chain: QKKRRNTLHEFKKSAKTTLTKEDPLLKIKTKKVNSADECANRCIRNRGFTFTCKAFVFDKSRKRCYWYPFNSMSSGVKKGFGHEFDLYENKDYIRNCIIGKGGSYKGTVSITKSGIKCQPWNSMIPHEHSFLPSSYRGKDLQENYCRNPRGEEGGPWCFTSNPEVRYEVCDIPQCSEVECMTCNGESYRGPMDHTESGKTCQRWDQQTPHRHKFLPERYPDKGFDDNYCRNPDGKPRPWCYTLDPDTPWEYCAIKTCAHSAVNETDVPMETTECIQGQGEGYRGTSNTIWNGIPCQRWDSQYPHKHDITPENFKCKDLRENYCRNPDGAESPWCFTTDPNIRVGYCSQIPKCDVSSGQDCYRGNGKNYMGNLSKTRSGLTCSMWDKNMEDLHRHIFWEPDASKLNKNYCRNPDDDAHGPWCYTGNPLIPWDYCPISRCEGDTTPTIVNLDHPVISCAKTKQLRVVNGIPTQTTVGWMVSLKYRNKHICGGSLIKESWVLTARQCFPARNKDLKDYEAWLGIHDVHERGEEKRKQILNISQLVYGPEGSDLVLLKLARPAILDNFVSTIDLPSYGCTIPEKTTCSIYGWGYTGLINADGLLRVAHLYIMGNEKCSQHHQGKVTLNESELCAGAEKIGSGPCEGDYGGPLICEQHKMRMVLGVIVPGRGCAIPNRPGIFVRVAYYAKWIHKVILTYKL
- adhesion of Met KO neutrophils to an activated endothelium (neutrophils [4]; Met KO neutrophils, HUVEC (IL-1)): did not modify the behavior of KO cells
- increase of adhesion of WT neutrophils to an activated endothelium (neutrophils [4]; WT neutrophils, HUVEC (IL-1), HGF 50 ng/ml): 48%
- neutrophil adhesion to nonactivated ECs (neutrophils [4]; nonactivated ECs): not affected
- transendothelial migration of Met KO neutrophils (neutrophils [3]; Met KO neutrophils, inflamed-like endothelium): completely lost this response to HGF
- transendothelial migration (chemotaxis) of WT neutrophils (neutrophils [3]; WT neutrophils, inflamed-like endothelium, HGF 50 ng/ml): promoted their chemotaxis through an inflamed-like endothelium
- migration of neutrophils through a naked porous membrane or a non-activated endothelium (neutrophils [3]; no activated endothelium): did not influence the migration of neutrophils
- recruitment of neutrophils into air pouch in KO→WT mice (Ly6G+ cells): completely abolished
- recruitment of Ly6G+ cells into air pouch (Ly6G+ cells): equally good in recruiting Ly6G+ cells
- upregulation of MET at RNA and protein levels [1]: not
- percentage of granulocytes bound to ICAM-1 (β2-integrin; soluble ICAM-1 binding assay): increases the percentage of granulocytes bound to ICAM-1
- cytotoxicity of KO neutrophils (LLC cancer cells; Met KO circulating neutrophils with LLC, HGF 100 ng/ml): not
- cytotoxicity of WT neutrophils (LLC cancer cells; WT circulating neutrophils with LLC, HGF 100 ng/ml): augmented
- NO release of KO neutrophils (neutrophils [5]; Met KO circulating neutrophils with LLC): not
- NO release of WT neutrophils (neutrophils [5]; WT circulating neutrophils with LLC): augmented

— patent US20150258194A1, “MODULATING TRANSENDOTHELIAL MIGRATION AND RECRUITMENT OF GRANULOCYTES BY MODULATING C-MET PATHWAY” (VIB VZW, priority 2012, published 2015)
